These results are taken from publication PMC7218104, “Consensus Design of an Evolved High-Redox Potential Laccase” (Frontiers in Bioengineering and Biotechnology, 2020).

What all share (test): purified protein
What all share (settings): sodium phosphate/citrate buffer 100 mM, pH 4.0

Substrate in series [1]: COc1ccccc1O
Substrate in series [2]: CCn1c(=NN=c2sc3cc(S(=O)(=O)O)ccc3n2CC)sc2cc(S(=O)(=O)O)ccc21
In kind it is biochemical, basidiomycete PM1.

Substrate in series [3]: COc1cccc(OC)c1O
In kind it is biochemical, basidiomycete PM1.

Substrate in series [4]: COc1cc(/C=C/C(=O)O)cc(OC)c1O
In kind it is biochemical, basidiomycete PM1.

Where a chain is given by its changes, count along the chain named. Names and notes keep the numbering of the source.

B1: OB-1 laccase (evolved variant of PM1 laccase, PM1Lac) (basidiomycete PM1; A260P/A482T/D302E/H229Y/S245G/S447N/V183A) (protein)
chain: SIGPVADLTISNGAVSPDGFSRQAILVNDVFPSPLITGNKGDRFQLNVIDNMTNHTMLKSTSIHWHGFFQHGTNWADGPAFVNQCPISTGHAFLYDFQVPDQAGTFWYHSHLSTQYCDGLRGPIVVYDPQDPHKSLYDVDDDSTVITLADWYHLAAKVGPAAPTADATLINGLGRSINTLNADLAVITVTKGKRYRFRLVSLSCDPNYTFSIDGHSLTVIEADGVNLKPQTVDSIQIFPAQRYSFVLNADQDVDNYWIRALPNSGTRNFDGGVNSAILRYEGAAPVEPTTTQTPSTQPLVESALTTLEGTAAPGNPTPGGVDLALNMAFGFAGGRFTINGASFTPPTVPVLLQILSGAQSAQDLLPSGSVYSLPANADIEISLPATSAAPGFPHPFHLHGHTFAVVRSAGSSTYNYANPVYRDVVNTGSPGDNVTIRFRTDNPGPWFLHCHIDFHLEAGFTVVMAEDIPDVAATNPVPQAWSDLCPTYDALSPDDQ
notes: mature laccase secreted from S. cerevisiae BJ5465 (pJRoC30) with evolved alpha-factor prepro-leader carrying V[alpha10]D, N[alpha23]K, A[alpha87]T; purified to homogeneity
For B1, the Michaelis constant (Km) in series [1] stood at 2600 ± 400 µM; in series [2], 7 ± 0.6 µM; in series [3], 150 ± 10 µM; in series [4] it was 320 ± 20 µM. Moreover, the kcat amounted to 117 s⁻¹ in series [1], 690 ± 20.2 s⁻¹ in series [2], 565 ± 13 s⁻¹ in series [3] and 741 ± 14.1 s⁻¹ in series [4]. The catalytic efficiency (kcat/Km) is 44600 M⁻¹ s⁻¹ in series [1], 1.06e+08 M⁻¹ s⁻¹ in series [2], 3.84e+06 M⁻¹ s⁻¹ in series [3] and 2.29e+06 M⁻¹ s⁻¹ in series [4].

B2: OB-1 laccase (evolved variant of PM1 laccase, PM1Lac) (basidiomycete PM1; A260P/A261G/A482T/D302E/H229Y/S245G/S447N/V183A) (protein)
chain: B1 chain with A240G
notes: as for B1
In the case of B2, the Km was found to be 3400 ± 400 µM in series [1], 9 ± 0.9 µM in series [2], 230 ± 10 µM in series [3] and 450 ± 60 µM in series [4]. For the same protein, the catalytic constant (kcat) in series [1] amounted to 171 s⁻¹; in series [2], 1330 ± 42.3 s⁻¹; in series [3], 1130 ± 18.4 s⁻¹; in series [4], 1430 ± 65.2 s⁻¹. Moreover, the kcat/Km was 50300 M⁻¹ s⁻¹ in series [1], 1.4e+08 M⁻¹ s⁻¹ in series [2], 5.56e+06 M⁻¹ s⁻¹ in series [3] and 3.18e+06 M⁻¹ s⁻¹ in series [4].
